{
  "source": "patent US20140056907A1",
  "about": "(Regeneron, published 2014)",
  "binders": {"B1": {"name": "H4H6718N (antibody, human IgG4, V domains shown)", "VH": "EVQLLESGGGLVQPGGSLRLSCAASGFTFSSFAMSWVRQAPGKGLEWVSGISGSGGGTHYADSVKGRFTISRDNSKNMVYLQMNSLRAEDTAAYYCAKEAYKWQPWGQGTLVTVSS", "VL": "DIQMTQSPSTLSASVGDRVIITCRASQRISSWLAWYQQKPGKAPNLLIYKASILESGVPSRFSGSGSGTEFTLTISSLQPDDFATYYCQQYNSYSYTFGQGTKLEIK"}},
  "key": {"mouse ASIC3": {"molecular_target": "T1, mouse ASIC3 (mouse, UniProt Q6X1Y6 1-530)", "T1 construct": "whole, on cells; Expressed on stably transfected 3T3 cells (3T3/mASIC3); also called mASIC3", "T1 sequence (looked up)": "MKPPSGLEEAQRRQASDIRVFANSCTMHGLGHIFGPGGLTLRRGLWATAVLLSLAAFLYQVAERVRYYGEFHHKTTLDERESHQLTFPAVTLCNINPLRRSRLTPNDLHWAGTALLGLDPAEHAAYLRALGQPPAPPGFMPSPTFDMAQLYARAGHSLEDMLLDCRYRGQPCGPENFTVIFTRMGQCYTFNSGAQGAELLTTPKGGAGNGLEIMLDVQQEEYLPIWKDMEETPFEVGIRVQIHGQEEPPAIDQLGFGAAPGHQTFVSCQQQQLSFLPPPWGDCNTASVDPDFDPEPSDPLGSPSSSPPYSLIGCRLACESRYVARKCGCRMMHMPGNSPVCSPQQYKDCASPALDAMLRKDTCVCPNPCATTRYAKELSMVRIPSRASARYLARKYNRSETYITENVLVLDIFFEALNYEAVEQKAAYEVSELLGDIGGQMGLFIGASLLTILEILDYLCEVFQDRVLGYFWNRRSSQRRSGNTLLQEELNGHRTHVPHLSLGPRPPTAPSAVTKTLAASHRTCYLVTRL", "assay": "FACS, 3T3/mASIC3 cells", "description": "(§1) For these experiments, four cell lines were constructed: (a) a mouse fibroblast 3T3 cell line stably transfected to overexpress full length human ASIC3 (3T3/hASIC3; amino acids 1-531 of NCBI accession number NP_{—}004760.1), (b) a 3T3 cell line stably transfected to co-express full length human ASIC1a and human ASIC3 (3T3/hASIC1/3; amino acids 1-528 of NCBI accession number NP_{—}001086.2 and amino acids 1-531 of NCBI accession number NP_{—}004760.1), (c) […] a stably transfected 3T3 cell line expressing the full-length mouse ASIC3 channel (3T3/mASIC3; amino acids 1-530 of NCBI accession number NP_{—}892045.2), and (d) a 3T3 cell line stably transfected to co-express full length mouse ASIC1a and mouse ASIC3 (3T3/mASIC1/3; amino acids 1-526 of NCBI accession number NP_{—}033727 and amino acids 1-530 of NCBI accession number NP_{—}892045.2). Antibody binding was determined using flow cytometry (FACS).\nTo perform the FACS binding experiments, adherent cells were collected with cold Millipore Accutase 3-5 minutes, spun and resuspended in ice-cold FACS buffer (PBS, 2% HI-FBS and 0.09% Na-azide). […] After incubating for 20 minutes on ice, the cells were washed and resuspended in FACS buffer, then sorted and analyzed on a flow cytometer (FACSCanto II, BD Biosciences, San Jose, Calif.) to determine relative binding by the candidate antibodies to the tested cell lines. […]"}, "human ASIC3": {"molecular_target": "T2, human ASIC3 (human, UniProt Q9UHC3 1-531)", "T2 construct": "whole, on cells; Expressed on 3T3 cells (3T3/hASIC3) or HEK293 cells (HEK/hASIC3-QCells); also called hASIC3", "T2 sequence (looked up)": "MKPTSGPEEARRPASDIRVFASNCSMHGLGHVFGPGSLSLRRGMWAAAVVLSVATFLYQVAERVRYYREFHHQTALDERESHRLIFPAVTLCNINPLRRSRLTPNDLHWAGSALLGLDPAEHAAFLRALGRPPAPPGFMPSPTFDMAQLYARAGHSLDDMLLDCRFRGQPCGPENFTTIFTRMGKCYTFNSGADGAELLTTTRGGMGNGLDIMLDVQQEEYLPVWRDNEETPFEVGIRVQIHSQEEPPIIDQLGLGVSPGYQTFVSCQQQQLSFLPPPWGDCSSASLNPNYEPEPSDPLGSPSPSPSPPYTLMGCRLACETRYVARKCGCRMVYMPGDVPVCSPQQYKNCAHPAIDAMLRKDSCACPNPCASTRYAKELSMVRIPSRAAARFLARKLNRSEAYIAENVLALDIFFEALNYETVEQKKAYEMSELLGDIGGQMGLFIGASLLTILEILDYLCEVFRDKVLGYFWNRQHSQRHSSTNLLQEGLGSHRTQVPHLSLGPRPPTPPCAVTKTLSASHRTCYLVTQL", "assay": "FACS, 3T3/hASIC3 cells", "description": "as §1\n(§2) To perform the FACS binding experiments, adherent cells were collected with cold Millipore Accutase 3-5 minutes, spun and resuspended in ice-cold FACS buffer (PBS, 2% HI-FBS and 0.09% Na-azide). Anti-ASIC1 antibody at final concentrations of 10 nM was added for 20-30 minutes on ice. Cells were washed with 900 μL ice-cold FACS buffer, spun, and resuspended in 100 μL ice-cold FACS buffer. A secondary antibody which recognizes human Fc (Jackson Immuno Research, #109-136-098) and is conjugated to allophycocyanin, was then added to the cell mixture at a final concentration of 2.5 ug/mL. After incubating for 20 minutes on ice, the cells were washed and resuspended in FACS buffer, then sorted and analyzed on a flow cytometer (FACSCanto II, BD Biosciences, San Jose, Calif.) to determine relative binding by the candidate antibodies to the tested cell lines. Histograms of cells stained with anti-ASIC1 antibodies were compared with those of cells stained with secondary antibody alone. Percentage of ASIC1 signal over secondary antibody alone was calculated using FlowJo software (Tree Star, Ashland, Oreg.)."}, "human ASIC1": {"molecular_target": "T3, human ASIC1 (human, UniProt P78348 1-528)", "T3 sequence": "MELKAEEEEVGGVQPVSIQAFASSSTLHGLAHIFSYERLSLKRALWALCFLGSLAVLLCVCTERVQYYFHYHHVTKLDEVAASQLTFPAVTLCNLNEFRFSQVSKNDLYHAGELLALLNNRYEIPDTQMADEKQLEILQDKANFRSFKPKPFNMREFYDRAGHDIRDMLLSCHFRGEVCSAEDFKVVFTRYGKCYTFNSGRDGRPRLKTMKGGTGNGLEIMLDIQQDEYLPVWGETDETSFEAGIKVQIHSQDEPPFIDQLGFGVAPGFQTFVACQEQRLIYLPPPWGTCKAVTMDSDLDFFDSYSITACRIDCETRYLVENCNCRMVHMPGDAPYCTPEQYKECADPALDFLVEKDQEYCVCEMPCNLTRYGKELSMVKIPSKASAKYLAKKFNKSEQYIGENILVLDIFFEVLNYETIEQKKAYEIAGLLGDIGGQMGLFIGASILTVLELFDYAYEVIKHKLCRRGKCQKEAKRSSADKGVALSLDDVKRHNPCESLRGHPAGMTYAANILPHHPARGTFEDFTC", "assay": "cell-based or functional assay"}, "[1]": {"molecular_target": "T4, mouse ASIC1/ASIC3 channels (co-expressed mouse ASIC1a and mouse ASIC3) (mouse, UniProt Q6NXK8 1-526; Q6X1Y6 1-530)", "T4 construct": "whole, on cells; 3T3 cells co-expressing both subunits; also called 3T3/mASIC1/3", "T4 sequence (looked up) 1": "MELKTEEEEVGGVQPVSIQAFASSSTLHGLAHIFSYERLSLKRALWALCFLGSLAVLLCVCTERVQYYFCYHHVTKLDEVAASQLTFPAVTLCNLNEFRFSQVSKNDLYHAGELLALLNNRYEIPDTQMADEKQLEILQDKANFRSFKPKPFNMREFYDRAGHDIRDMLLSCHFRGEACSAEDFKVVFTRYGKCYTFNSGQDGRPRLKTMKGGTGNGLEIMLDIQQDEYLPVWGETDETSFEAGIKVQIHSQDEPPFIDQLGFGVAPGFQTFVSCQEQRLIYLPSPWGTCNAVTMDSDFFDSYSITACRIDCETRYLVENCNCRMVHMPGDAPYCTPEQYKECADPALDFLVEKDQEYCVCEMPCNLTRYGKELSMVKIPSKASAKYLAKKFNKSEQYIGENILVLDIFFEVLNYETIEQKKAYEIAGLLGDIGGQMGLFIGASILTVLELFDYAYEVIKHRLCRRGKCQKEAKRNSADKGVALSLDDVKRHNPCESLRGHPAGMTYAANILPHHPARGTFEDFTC", "T4 sequence (looked up) 2": "T1 sequence (looked up)", "assay": "FACS, 3T3/mASIC1/3 cells, 10 nM antibody", "description": "Antibody binding was determined using flow cytometry (FACS).\nas §2"}},
  "data": [
    {"binder": "B1", "values": [
      {"measurement": "binding result", "setting": "mouse ASIC3", "value": "no binding (tested: 10 nM)"},
      {"measurement": "binding result", "setting": "human ASIC3", "value": "no binding (tested: 10 nM; gated lower than 1%)"},
      {"measurement": "apparent IC50, human ASIC1 current, Q-Patch", "setting": "human ASIC1", "value": "< 1", "unit": "nM"},
      {"measurement": "binding result", "setting": "[1]", "value": "binds"}
    ]}
  ]
}
